Experimental data taken from US11078259B2, “Methods and compositions for promoting thermogenic potential” (Joslin Diabetes Center, Inc., priority 2015, dated 2021).
“Also recorded” adds a separate entry of the source.

Test system: hBAT progenitors with hUCP1-promoter-Luc/GFP
Test: Transplantation of UCP1 reporter progenitors into nude mice, in vivo bioluminescent imaging
Set-up: species or system BALB/c athymic nude mice
Settings: mice implanted with hBAT progenitors; 3.3 nM BMP7 pretreatment of progenitors 6 days
Text: FIG. 7A depicts a transgenic UCP1 reporter system for measuring UCP1 gene expression. A bicistronic luciferase and green fluorescent protein (GFP) reporter was coupled to a 4.1 kb human UCP1 promoter fragment. FIG. 7B depicts the organization of plasmid pLV.ExBi.P/Puro-hUCP1promoter-Luc(firefly)-T2A-hrGFP, which contains the UCP1 reporter system described in FIG. 7A. FIG. 7C depicts time-lapse microscopy of differentiating hBAT-SVF cells containing the UCP1 reporter system. UCP1 expression was monitored by visualization of GFP. FIG. 7D depicts that in hBAT-SVF and hWAT-SVF cells stably expressing the reporter construct, luciferase activity (Right) was strongly correlated with endogenous UCP1 gene expression (Left) during the course of differentiation (see FIG. 2A and Methods). For determination of UCP1 mRNA levels, total RNAs were isolated on day 0, 2, 3, 5, 9, 12, 15 and 18; for luciferase activity assay, cell lysates were collected on day 0, 6, 9 and 18. Data are presented as fold changes compared to hWAT-SVF on day 0 (mean±s.e.m., n=3). […]
Human immortalized white and brown fat progenitors with hUCP1-promoter-Luc/GFP were grown in the presence and absence of 3.3 nM BMP7 for 6 days to reach confluence. […] The luminescence intensity in regions of interest from each image was quantified to examine the viability of the implanted cells. […]

B1: BMP7: Recombinant human BMP7, an inducer of brown adipogenesis (protein, UniProt P18075 293-431, looked up)
Bone morphogenetic protein 7: STGSKQRSQNRSKTPKNQEALRMANVAENSSSDQRQACKKHELYVSFRDLGWQDWIIAPEGYAAYYCEGECAFPLNSYMNATNHAIVQTLVHFINPETVPKPCCAPTQLNAISVLYFDDSSNVILKKYRNMVVRACGCH
luciferase activity (UCP1 reporter) in vivo: further induced; also recorded: increased further
